The text below walks through data of paper PMC5582136.

Experiment [1] has as its target fibrillin-1 TB4-cbEGF23 domain pair (residues 1527–1647) (human) (UniProt P35555). In words: SPR. On the technique in general: Surface plasmon resonance follows binding to a sensor surface in real time, without labels.
Experiment [2] addresses fibrillin-1 cbEGF22-TB4 domain pair (residues 1486–1605) (human) (UniProt P35555). In words: SPR.

“native αVβ3 integrin purified from human placental extract (from UniProt P05106 27-788) (receptor)” yielded a koff in experiment [1] of 0.0016 s⁻¹. In experiment [2], this substance came in with a fold difference in Ka against TB4-cbEGF23 of 2 fold.

One may read the koff as the rate constant with which the complex falls apart. A high value points to fast dissociation.
